Data published in PMC4389316, “C-terminal residues of skeletal muscle calsequestrin are essential for calcium binding and for skeletal ryanodine receptor inhibition” (Skeletal Muscle, 2015).
Where a chain is given by its changes, count along the chain named. Each block holds one molecule with its values, some of them ahead of it.

Tests used:
junctin = assay: co-immunoprecipitation (CSQ1 IP, Western blot densitometry); conditions: 1 mM Ca2+; parent: est. 100; read off a plot
[1] = molecular target: ryanodine receptor type 1 (RyR1), purified (rabbit (endogenous in skeletal muscle …, UniProt P11716 1-5037)); assay: cell-based or functional assay
Sequence of ryanodine receptor type 1 (RyR1), purified (rabbit (P11716 whole entry): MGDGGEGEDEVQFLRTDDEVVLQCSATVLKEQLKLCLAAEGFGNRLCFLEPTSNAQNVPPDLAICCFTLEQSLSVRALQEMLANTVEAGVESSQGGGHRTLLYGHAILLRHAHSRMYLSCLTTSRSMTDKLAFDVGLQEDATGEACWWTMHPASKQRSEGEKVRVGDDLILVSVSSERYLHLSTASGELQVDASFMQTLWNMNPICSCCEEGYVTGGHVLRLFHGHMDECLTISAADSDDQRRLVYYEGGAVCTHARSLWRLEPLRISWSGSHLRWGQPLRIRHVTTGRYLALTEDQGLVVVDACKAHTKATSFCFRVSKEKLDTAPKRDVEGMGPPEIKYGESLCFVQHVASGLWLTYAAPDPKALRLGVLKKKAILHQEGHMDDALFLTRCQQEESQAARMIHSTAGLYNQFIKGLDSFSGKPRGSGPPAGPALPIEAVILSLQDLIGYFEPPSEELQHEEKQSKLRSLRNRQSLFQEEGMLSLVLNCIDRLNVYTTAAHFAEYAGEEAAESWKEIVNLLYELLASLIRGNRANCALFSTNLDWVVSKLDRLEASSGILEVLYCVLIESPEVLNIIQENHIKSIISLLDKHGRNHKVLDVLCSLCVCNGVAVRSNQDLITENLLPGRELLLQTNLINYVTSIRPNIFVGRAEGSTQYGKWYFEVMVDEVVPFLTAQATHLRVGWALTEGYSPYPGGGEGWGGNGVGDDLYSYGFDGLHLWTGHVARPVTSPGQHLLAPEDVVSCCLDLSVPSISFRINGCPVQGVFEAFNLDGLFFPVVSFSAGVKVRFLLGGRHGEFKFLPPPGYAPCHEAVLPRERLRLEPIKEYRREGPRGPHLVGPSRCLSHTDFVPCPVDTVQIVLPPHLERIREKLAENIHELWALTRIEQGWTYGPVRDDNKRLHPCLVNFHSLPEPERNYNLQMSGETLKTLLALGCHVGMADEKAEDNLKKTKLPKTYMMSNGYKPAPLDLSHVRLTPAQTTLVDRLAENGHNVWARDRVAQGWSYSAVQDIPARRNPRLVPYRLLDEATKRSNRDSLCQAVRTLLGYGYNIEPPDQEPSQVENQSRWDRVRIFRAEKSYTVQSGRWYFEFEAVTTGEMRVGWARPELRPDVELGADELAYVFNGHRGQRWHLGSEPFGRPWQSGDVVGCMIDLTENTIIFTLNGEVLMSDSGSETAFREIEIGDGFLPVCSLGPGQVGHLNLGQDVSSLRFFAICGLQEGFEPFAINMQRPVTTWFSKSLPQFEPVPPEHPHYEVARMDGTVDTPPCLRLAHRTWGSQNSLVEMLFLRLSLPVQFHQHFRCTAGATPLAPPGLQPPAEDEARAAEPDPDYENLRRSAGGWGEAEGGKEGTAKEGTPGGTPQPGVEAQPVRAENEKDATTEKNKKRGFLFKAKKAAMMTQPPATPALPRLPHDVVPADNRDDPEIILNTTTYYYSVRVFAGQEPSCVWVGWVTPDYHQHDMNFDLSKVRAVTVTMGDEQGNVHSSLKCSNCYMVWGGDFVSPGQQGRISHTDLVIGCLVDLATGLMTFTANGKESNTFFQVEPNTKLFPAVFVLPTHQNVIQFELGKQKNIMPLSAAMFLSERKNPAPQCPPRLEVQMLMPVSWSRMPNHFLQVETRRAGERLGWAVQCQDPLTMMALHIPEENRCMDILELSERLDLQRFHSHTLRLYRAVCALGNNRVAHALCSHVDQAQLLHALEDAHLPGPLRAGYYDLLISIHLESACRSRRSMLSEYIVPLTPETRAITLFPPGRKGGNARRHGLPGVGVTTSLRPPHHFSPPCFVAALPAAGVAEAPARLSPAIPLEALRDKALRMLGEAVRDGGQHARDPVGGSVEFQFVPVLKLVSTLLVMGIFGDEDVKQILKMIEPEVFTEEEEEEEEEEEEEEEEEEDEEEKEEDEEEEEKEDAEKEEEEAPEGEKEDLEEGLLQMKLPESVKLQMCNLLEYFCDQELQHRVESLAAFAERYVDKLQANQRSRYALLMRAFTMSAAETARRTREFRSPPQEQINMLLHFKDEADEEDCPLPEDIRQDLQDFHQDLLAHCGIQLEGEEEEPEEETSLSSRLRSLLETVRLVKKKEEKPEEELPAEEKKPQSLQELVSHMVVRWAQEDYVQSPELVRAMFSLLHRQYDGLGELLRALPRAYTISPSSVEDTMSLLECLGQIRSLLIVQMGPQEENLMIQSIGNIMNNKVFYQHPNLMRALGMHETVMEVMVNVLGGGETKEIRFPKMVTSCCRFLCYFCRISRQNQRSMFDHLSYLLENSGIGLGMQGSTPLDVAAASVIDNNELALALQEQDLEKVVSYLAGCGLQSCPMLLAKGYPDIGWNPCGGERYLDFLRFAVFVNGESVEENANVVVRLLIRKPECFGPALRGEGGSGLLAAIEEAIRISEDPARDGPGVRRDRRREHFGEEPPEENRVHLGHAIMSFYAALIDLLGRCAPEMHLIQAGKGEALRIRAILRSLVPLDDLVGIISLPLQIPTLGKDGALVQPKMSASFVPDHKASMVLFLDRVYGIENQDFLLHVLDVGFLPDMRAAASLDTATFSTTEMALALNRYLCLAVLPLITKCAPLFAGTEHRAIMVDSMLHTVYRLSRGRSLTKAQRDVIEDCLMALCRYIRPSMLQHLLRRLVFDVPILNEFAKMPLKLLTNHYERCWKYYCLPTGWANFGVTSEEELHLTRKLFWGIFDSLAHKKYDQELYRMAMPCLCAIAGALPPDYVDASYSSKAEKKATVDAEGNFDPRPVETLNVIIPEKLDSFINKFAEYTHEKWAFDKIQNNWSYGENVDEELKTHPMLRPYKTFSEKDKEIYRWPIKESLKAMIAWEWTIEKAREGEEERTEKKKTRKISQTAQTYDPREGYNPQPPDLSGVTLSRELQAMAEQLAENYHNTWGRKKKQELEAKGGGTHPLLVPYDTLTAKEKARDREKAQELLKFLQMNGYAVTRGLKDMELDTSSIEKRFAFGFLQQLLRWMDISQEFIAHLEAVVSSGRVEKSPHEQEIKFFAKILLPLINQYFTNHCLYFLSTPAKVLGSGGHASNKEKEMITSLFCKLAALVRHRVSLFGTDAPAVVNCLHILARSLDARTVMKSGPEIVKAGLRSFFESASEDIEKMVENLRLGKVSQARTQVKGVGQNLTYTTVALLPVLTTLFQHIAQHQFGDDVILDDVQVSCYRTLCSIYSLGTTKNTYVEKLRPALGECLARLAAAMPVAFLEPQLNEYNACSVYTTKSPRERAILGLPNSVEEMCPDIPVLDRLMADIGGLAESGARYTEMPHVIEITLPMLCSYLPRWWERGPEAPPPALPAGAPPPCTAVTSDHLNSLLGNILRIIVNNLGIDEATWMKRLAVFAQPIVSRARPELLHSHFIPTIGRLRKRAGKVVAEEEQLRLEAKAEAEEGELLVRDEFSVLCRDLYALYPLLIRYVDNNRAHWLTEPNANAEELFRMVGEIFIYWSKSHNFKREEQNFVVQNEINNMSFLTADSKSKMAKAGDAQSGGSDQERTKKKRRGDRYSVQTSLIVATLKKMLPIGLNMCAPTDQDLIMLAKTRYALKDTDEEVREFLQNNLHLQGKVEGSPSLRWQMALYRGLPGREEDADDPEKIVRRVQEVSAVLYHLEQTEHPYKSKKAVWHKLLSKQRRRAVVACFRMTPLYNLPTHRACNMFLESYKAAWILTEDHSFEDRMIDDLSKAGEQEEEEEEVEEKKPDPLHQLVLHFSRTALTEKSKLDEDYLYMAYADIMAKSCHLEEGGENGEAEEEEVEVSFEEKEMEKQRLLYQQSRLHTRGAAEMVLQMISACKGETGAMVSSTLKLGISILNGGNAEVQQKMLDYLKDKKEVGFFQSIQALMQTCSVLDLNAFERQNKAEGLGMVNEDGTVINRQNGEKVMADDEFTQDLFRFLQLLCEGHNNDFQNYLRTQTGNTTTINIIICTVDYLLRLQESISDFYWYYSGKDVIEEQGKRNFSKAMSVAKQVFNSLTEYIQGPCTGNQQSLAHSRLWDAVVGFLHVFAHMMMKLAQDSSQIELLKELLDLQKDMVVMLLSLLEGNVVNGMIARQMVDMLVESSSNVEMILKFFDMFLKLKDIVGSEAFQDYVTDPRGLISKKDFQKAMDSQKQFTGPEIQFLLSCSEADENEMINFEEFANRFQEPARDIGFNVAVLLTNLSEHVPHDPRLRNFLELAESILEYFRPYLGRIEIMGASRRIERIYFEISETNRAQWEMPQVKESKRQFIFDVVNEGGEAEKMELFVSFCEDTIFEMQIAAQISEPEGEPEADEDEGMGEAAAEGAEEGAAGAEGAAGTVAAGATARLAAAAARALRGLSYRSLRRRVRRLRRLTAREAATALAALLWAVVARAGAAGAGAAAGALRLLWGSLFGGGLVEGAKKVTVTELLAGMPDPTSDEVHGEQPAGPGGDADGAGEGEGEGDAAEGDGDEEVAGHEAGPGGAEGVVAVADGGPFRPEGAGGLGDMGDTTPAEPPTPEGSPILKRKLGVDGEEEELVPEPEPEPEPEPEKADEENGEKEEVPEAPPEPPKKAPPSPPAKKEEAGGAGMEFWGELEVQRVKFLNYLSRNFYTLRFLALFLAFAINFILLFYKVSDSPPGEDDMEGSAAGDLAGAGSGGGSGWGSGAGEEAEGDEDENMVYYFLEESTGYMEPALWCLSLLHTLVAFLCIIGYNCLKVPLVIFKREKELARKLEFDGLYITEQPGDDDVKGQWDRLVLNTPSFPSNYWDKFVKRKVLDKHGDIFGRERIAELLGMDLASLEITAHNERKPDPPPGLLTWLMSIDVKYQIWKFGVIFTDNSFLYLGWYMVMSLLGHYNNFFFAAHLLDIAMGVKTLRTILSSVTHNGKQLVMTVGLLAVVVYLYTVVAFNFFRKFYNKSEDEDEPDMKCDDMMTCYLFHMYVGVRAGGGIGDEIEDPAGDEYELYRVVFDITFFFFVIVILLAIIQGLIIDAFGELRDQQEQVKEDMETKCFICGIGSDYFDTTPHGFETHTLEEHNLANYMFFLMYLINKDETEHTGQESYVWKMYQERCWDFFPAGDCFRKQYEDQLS

[2] = molecular target: T1, skeletal triadin 95 kDa (trisk95) (rabbit (endogenous in skeletal muscle …, UniProt Q28820 1-706)); assay: co-IP; purified CSQ1 construct coupled to anti-CSQ1/protein A/G agarose (Pierce kit), then exposed to purified trisk95 or junctin; 20 mM MOPS, 150 mM NaCl, 1 mM CaCl2, pH 7.4; CSQ1 to partner 2:1 by weight; Western blot; conditions: both partners purified
T1 construct: triadin, skeletal muscle 95 kDa isoform, isolated from SR vesicles of New Zealand White rabbit back and leg muscle; also called triadin skeletal muscle 95 kDa; source: purified from rabbit skeletal SR vesicles (SDS preparative gel electrophoresis)
T1 sequence (looked up): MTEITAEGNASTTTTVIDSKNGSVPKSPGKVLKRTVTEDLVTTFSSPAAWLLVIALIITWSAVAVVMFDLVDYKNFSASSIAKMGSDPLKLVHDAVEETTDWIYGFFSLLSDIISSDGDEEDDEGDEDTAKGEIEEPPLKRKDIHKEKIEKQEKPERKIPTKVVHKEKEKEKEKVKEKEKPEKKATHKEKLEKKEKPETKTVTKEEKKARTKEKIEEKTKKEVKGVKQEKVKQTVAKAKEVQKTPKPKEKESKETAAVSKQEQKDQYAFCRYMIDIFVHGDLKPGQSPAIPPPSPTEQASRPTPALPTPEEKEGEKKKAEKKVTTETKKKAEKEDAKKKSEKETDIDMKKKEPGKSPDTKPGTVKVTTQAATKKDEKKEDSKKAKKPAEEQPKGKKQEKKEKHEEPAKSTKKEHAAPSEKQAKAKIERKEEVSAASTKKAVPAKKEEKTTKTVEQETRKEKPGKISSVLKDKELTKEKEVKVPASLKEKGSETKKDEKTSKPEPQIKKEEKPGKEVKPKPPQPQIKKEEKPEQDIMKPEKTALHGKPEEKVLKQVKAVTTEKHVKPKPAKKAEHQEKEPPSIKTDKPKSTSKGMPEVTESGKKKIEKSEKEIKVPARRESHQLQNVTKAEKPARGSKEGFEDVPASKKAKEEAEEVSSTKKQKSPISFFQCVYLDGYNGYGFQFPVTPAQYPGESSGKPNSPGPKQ

percent of parent (% relative binding) (junctin): 110
Molecule: wild-type (WT) calsequestrin type 1 (CSQ1), rabbit (from UniProt P07221) D367A

percent of parent (% relative binding) (junctin): 92
Molecule: wild-type (WT) calsequestrin type 1 (CSQ1), rabbit (from UniProt P07221) D363A; D365A; D367A

percent of parent (% relative binding) (junctin): 110
Molecule: wild-type (WT) calsequestrin type 1 (CSQ1), rabbit (from UniProt P07221) D365A; D367A

rise in activity (open probability) of purified RyR1 in lipid bilayers after trans addition of CSQ1∆C14 [1]: ~1.9 fold
B1: CSQ1_(∆C14) (rabbit CSQ1 lacking the whole C-terminal tail, residues 354-367) (domain or fragment, UniProt P07221 29-381, looked up)
chain: EEGLDFPEYDGVDRVINVNAKNYKNVFKKYEVLALLYHEPPEDDKASQRQFEMEELILELAAQVLEDKGVGFGLVDSEKDAAVAKKLGLTEEDSIYVFKEDEVIEYDGEFSADTLVEFLLDVLEDPVELIEGERELQAFENIEDEIKLIGYFKNKDSEHYKAFKEAAEEFHPYIPFFATFDSKVAKKLTLKLNEIDFYEAFMEEPVTIPDKPNSEEEIVNFVEEHRRSTLRKLKPESMYETWEDDMDGIHIVAFAEEADPDGYEFLEILKSVAQDNTDNPDLSIIWIDPDDFPLLVPYWEKTFDIDLSAPQIGVVNVTDADSVWMEMDDEEDLPSAEELEDWLEDVLEGEINT

binding result [2]: binds | activation of purified RyR1 in lipid bilayers by WT CSQ1 [1]: ~2.8 fold
B2: wild-type (WT) calsequestrin type 1 (CSQ1), rabbit (natural protein, UniProt P07221 29-395, looked up)
chain: EEGLDFPEYDGVDRVINVNAKNYKNVFKKYEVLALLYHEPPEDDKASQRQFEMEELILELAAQVLEDKGVGFGLVDSEKDAAVAKKLGLTEEDSIYVFKEDEVIEYDGEFSADTLVEFLLDVLEDPVELIEGERELQAFENIEDEIKLIGYFKNKDSEHYKAFKEAAEEFHPYIPFFATFDSKVAKKLTLKLNEIDFYEAFMEEPVTIPDKPNSEEEIVNFVEEHRRSTLRKLKPESMYETWEDDMDGIHIVAFAEEADPDGYEFLEILKSVAQDNTDNPDLSIIWIDPDDFPLLVPYWEKTFDIDLSAPQIGVVNVTDADSVWMEMDDEEDLPSAEELEDWLEDVLEGEINTEDDDDEDDDDDDDD
notes: GST was cleaved with Factor Xa for single channel and 45Ca studies; probably GST-CSQ1 on Glutathione Sepharose; the discussion calls WT 'full-length CSQ1', while the numbering (C-terminus = 367) is that of the mature protein; also called WT CSQ1; WT CSQ; source: rabbit CSQ1 cDNA in pGEX5x1, expressed as previously described [34], purified

binding result [2]: binds
B3: CSQ1DA3 (rabbit CSQ1 with three alternate C-terminal acidic residues changed to alanine) (natural protein, UniProt P07221 29-395, looked up)
chain: B2 chain with D363A, D365A, D367A
notes: GST state as for m1; also called CSQ1D∆3; source: rabbit CSQ1 cDNA in pGEX5x1, expressed as previously described [34], purified
